Holding throughout (assay): Biacore SPR; receptor-Fc captured by anti-Fc antibody, ligand injected
A general note: Surface plasmon resonance follows binding to a sensor surface in real time, without labels.

For one assay, the target named is T1, Activin A (UniProt P08476 311-426).
T1 construct: also called βAβA
T1 sequence (looked up): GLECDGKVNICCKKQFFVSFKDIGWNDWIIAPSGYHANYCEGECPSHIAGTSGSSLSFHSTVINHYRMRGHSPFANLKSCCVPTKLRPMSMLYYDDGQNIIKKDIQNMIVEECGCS
The method, then: (§1) Ligands were injected and allowed to flow over the captured receptor protein.

In the next assay the target is T2, Activin B (UniProt P09529 293-407).
T2 construct: also called βBβB
T2 sequence (looked up): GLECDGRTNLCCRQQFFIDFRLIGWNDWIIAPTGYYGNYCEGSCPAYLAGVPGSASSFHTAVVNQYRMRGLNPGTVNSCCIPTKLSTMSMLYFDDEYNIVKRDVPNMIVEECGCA
The method, then: as §1

In a further assay the target is T3, Activin AB (UniProt P08476 311-426; P09529 293-407).
T3 construct: also called βAβB
T3 sequence (looked up) 1: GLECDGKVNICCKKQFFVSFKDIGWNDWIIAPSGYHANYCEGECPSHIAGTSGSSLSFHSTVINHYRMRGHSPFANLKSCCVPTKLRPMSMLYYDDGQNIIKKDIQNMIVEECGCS
T3 sequence (looked up) 2: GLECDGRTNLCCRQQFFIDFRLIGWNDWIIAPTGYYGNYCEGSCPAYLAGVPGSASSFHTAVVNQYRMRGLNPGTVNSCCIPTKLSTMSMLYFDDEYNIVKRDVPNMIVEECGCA
The method, then: as §1

The next assay concerns the target T4, Activin AC (UniProt P08476 311-426; P55103 237-352).
T4 sequence (looked up) 1: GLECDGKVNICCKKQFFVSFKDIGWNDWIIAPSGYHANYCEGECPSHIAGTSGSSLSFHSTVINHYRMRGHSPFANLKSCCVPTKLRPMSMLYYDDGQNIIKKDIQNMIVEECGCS
T4 sequence (looked up) 2: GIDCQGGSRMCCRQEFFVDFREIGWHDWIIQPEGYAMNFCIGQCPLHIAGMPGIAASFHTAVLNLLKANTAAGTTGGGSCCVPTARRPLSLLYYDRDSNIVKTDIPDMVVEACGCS
Here is the method:
as §1

Another assay deals with BMP2 (UniProt P12643 283-396). Here is the method:
as §1

In another assay the target is T5, BMP4 (UniProt P12644 293-408).
T5 sequence (looked up): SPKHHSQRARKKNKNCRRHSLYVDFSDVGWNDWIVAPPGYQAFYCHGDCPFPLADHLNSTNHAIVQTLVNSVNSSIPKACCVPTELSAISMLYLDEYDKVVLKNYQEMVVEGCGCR
The method, then: as §1

A further assay has as its target T6, BMP5 (UniProt P22003 317-454, limits assumed).
T6 sequence (looked up): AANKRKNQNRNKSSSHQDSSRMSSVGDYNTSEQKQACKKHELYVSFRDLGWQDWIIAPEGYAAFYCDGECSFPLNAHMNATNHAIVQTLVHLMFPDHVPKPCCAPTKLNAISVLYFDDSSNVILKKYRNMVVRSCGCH
Here is the method:
as §1

In a further assay the target is T7, BMP6 (UniProt P22004 382-513, limits assumed).
T7 sequence (looked up): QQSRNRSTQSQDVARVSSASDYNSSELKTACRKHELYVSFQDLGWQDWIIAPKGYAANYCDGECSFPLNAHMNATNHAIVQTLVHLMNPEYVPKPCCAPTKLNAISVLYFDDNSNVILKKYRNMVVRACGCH
Here is the method: as §1

Another assay deals with T8, BMP7 (UniProt P18075 293-431).
T8 construct: also called osteogenic protein-1; OP-1
T8 sequence (looked up): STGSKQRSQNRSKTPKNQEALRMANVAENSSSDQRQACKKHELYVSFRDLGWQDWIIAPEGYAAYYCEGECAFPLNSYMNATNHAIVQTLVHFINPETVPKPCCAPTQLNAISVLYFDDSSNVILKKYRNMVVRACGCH
Here is the method:
as §1

For another assay, the target named is T9, BMP10 (UniProt O95393 317-424).
T9 sequence (looked up): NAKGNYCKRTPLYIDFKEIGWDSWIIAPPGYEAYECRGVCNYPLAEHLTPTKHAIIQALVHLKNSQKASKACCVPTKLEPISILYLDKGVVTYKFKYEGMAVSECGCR
Here is the method: as §1

The target of another assay is T10, GDF5 (UniProt P43026 382-501, limits assumed).
T10 construct: also called BMP14
T10 sequence (looked up): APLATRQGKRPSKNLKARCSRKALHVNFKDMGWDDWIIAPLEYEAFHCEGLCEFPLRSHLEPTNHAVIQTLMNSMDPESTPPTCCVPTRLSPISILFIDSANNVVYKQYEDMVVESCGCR
Here is the method: as §1

The target in the next assay is T11, GDF6 (UniProt Q6KF10 336-455, limits assumed).
T11 construct: also called BMP13
T11 sequence (looked up): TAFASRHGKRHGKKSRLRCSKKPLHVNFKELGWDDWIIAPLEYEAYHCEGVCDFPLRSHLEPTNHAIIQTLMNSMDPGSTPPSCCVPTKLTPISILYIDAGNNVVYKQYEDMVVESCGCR
Here is the method:
as §1

The target in another assay is T12, GDF7 (UniProt Q7Z4P5 322-450, limits assumed).
T12 construct: also called BMP12
T12 sequence (looked up): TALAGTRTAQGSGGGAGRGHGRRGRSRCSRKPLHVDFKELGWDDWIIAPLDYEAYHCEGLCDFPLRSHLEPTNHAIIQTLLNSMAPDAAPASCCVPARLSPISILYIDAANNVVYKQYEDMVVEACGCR
Here is the method:
as §1

Another assay has as its target T13, GDF8 (UniProt O14793 267-375).
T13 construct: also called myostatin; growth and differentiation factor-8
T13 sequence (looked up): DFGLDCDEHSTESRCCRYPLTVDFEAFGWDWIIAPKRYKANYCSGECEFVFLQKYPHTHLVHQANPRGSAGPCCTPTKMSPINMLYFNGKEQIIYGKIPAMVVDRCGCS
Here is the method: as §1

A further assay addresses T14, GDF11 (UniProt O95390 299-407).
T14 construct: also called BMP11
T14 sequence (looked up): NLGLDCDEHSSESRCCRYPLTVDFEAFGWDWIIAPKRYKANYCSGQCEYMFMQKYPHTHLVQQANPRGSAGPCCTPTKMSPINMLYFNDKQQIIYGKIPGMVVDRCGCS
Here is the method:
as §1

Chain of BMP2 (P12643 283-396 limits assumed): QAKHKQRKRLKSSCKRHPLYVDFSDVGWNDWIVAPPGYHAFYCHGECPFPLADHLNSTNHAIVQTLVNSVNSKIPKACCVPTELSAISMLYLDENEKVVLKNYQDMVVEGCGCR

B1: single-arm ALK3-Fc heterodimeric complex (Fc fusion)
chain 1: GAQNLDSMLHGTGMKSDSDQKKSENGVTLAPEDTLPFLKCYCSGHCPDDAINNTCITNGHCFAIIEEDDQGETTLASGCMKYEGSDFQCKDSPKAQLRRTIECCRTNLCNQYLQPTLPPVVIGPFFDGSIRTGGGTHTCPPCPAPELLGGPSVFLFPPKPKDTLMISRTPEVTCVVVDVSHEDPEVKFNWYVDGVEVHNAKTKPREEQYNSTYRVVSVLTVLHQDWLNGKEYKCKVSNKALPAPIEKTISKAKGQPREPQVYTLPPSREEMTKNQVSLTCLVKGFYPSDIAVEWESNGQPENNYDTTPPVLDSDGSFFLYSDLTVDKSRWQQGNVFSCSVMHEALHNHYTQKSLSLSPG
chain 2: SNTKVDKRVTGGGTHTCPPCPAPELLGGPSVFLFPPKPKDTLMISRTPEVTCVVVDVSHEDPEVKFNWYVDGVEVHNAKTKPREEQYNSTYRVVSVLTVLHQDWLNGKEYKCKVSNKALPAPIEKTISKAKGQPREPQVYTLPPSRKEMTKNQVSLTCLVKGFYPSDIAVEWESNGQPENNYKTTPPVLKSDGSFFLYSKLTVDKSRWQQGNVFSCSVMHEALHNHYTQKSLSLSPGK
notes: also called ALK3-Fc:Fc heterodimer
In the case of B1, the binding result in the assay with Activin A, with Activin B, in the assay with Activin AB, with Activin AC, in the assay with BMP6 and with BMP7 was “no binding” in each case. Moreover, the binding result with BMP10, with GDF5, with GDF6, with GDF8 and in the assay with GDF11 was “no binding” throughout. The Kd (as a rule, the constant that tells how readily two partners part at equilibrium) was found to be 0.31 nM with BMP2, 0.093 nM with BMP4, 45 nM with BMP5 and 22 nM in the assay with GDF7. Besides, the koff (usually the rate constant with which the complex falls apart) with BMP2 worked out at 0.00025 s⁻¹; with BMP4, 4.6e-05 s⁻¹; with BMP5, 0.0053 s⁻¹; in the assay with GDF7, 0.01 s⁻¹. Further, the kon (usually a measure of how fast the partners come together) in the assay with BMP2 stood at 790000 M⁻¹ s⁻¹; with BMP4 it was 490000 M⁻¹ s⁻¹; with BMP5, 120000 M⁻¹ s⁻¹; with GDF7 it was 460000 M⁻¹ s⁻¹.

The record behind these values is US20200055920A1 (published 2020).
